Laboratory results published in patent US20170152290A1.

Legend:
[1] = target: LRP1 receptor (Low Density Lipoprotein Receptor-Related Protein) on Vero cells; test: cell-based or functional assay
[2] = target: T1, sLRP1-CIV (cluster IV of LRP1 fused to the constant region of a human IgG1) (human); test: SPR (Biacore X), sLRP1-CIV immobilised on CM5 chip, peptide at 20 µM; RU at 270 s
[3] = target: T1, sLRP1-CIV (cluster IV of LRP1 fused to …); test: SPR (Biacore X), sLRP1-CIV immobilised on CM5 chip, peptide at 20 µM; RU observed at 160 s

Binder | Antiviral activity in Vero cells, IC50 (plaque reduction, DENV2) [1] [µM] | RU (at 270 s) [2] [RU] | other results
CVNVTINGKKYNWCKKK (modifications not checked) [beta hairpin peptide PHB7] | 79 |  | 
CSNIVIGIGDKALKINACKKK (modifications not checked) [peptide HDIII3CLW-] | > 100 |  | 
CVNWTEPDKKVNWCKKK (modifications not checked) [beta hairpin peptide PHB1] | 75 | 117 | 
CIEVYWTRPKWKVNWFICKKK (modifications not checked) [beta hairpin peptide PHB4] | 0.003 | 3600 | Antiviral activity IC50 vs DENV1 (plaque reduction, Vero cells) [1]: 0.002 µM; Antiviral activity IC50 vs DENV2 (plaque reduction, Vero cells) [1]: 0.003 µM; Antiviral activity IC50 vs DENV3 (plaque reduction, Vero cells) [1]: 0.005 µM; Antiviral activity IC50 vs DENV4 (plaque reduction, Vero cells) [1]: 0.01 µM
CSNIVIGIGDKALAINWCKKK (modifications not checked) [peptide HDIII3CLK-] | > 100 |  | RU (at 160 s) [3]: 276 RU
CIEVYVTINGKKYNWFICKKK (modifications not checked) [beta hairpin peptide PHB9] | 7 | 1080 | 
SSNIVIGIGDKALKINWSKKK (modifications not checked) [peptide HDIII3CLC-] | > 100 |  | 
FWNWKWEKNKWTWNVEGGKKK (modifications not checked) [beta hairpin peptide PHB5] | 17 | 175 | 
FWNWKWEPNKWTWNVEGGKKK (modifications not checked) [beta hairpin peptide PHB6] | 33 |  | 
CIEVNVTINGKKYNWFICKKK (modifications not checked) [beta hairpin peptide PHB8] | 15 |  | 
CIEVNWTEPDKKVNWFICKKK (modifications not checked) [beta hairpin peptide PHB3] | 17 |  | 
CSNIVIGIGDKALKINWCKKK (modifications not checked) [peptide HDIII3CL2] | 20 |  | RU (at 160 s) [3]: 1010 RU
CVYWTRPKWKVNWCKKK (modifications not checked) [beta hairpin peptide PHB2] | 12 | 861 | 
